# No end group written: not given here.
# T1: human EGFRvIII amino acid residues 1 to 18, yeast-displayed (human, not fully specified)
# T1 construct: also called aa 1-18
# T1 peptide: LEEKKGNYVVTDHGSCVR
# B1: F271-1D2 anti-EGFRvIII monoclonal antibody (antibody, V domains shown)
# VH: DVQLQESGPDLVKPSQSLSLTCTVTGYSITSGYSWHWIRQFPGNKLEWMGYIHYSGSTNYNPSLKSRISITRDTSKNQFFLQLSSVTTEDTATYYCTRSPYFDVWGTGTTVTVSS
# VL: DVVMTQTPLSLPVSLGDQASISCRSSQSLVHSDGNTYLHWYLQKPGQSPKLLIYKVSNRFSGVPDRFSGSGSGTDFTLKISRVEAEDLGVYFCSQSTHVPWTFGGGTKLEIK
# notes: Mouse hybridoma IgG, tested as supernatant or Protein G purified mAb
# Key:
# [1] = molecular target: T2, recombinant human EGFRvIII protein, native (human, UniProt P00533 298-623); assay: ELISA on coated native recombinant antigen; Exp 2, purified mAb 1 µg/ml
# T2 construct: Recombinant extracellular domain used as immunogen and ELISA coat; also called EGFRvIII Native
# Method: (§1) Pre- and post-immune sera titers of animals were assessed by ELISA on recombinant EGFRvIII protein. Unless otherwise stated, all incubations were performed at room temperature. Briefly, half-area 96-well plates (Costar #3690) were coated with 25 μl per well of immunogen at 5 μg/ml in PBS and incubated overnight at 4° C. Microplates were washed three times in PBS and blocked for 30 min with PBS containing 1% bovine serum albumin (BSA, Sigma Cat#A7030). Blocking buffer was removed and 25 μl of serial dilutions of sera samples were added. After a 2-h incubation, microplates were washed 4 times with PBS-TWEEN™ 20 0.05% and 25 μl of a 1/5,000 dilution of alkaline phosphatase conjugated F(ab′)′₂ goat anti-mouse IgG (H+L, #115-056-062, Jackson Immunoresearch, Cedarlane, Burlington, ON) in blocking buffer was added. After a 1-h incubation, microplates were washed 4 times and 25 μl of p-nitrophenyl phosphate (pNPP) substrate (Sigma-Aldrich Canada Co., Oakville, ON) at 1 mg/ml in carbonate buffer at pH 9.6 was added and further incubated for 30 min. Absorbance was read at 405 nm using a SpectraMax 340 PC plate reader (Molecular Devices, Sunnyvale, Calif.).
# (§2) To evaluate if monoclonal antibodies bind to a conformational epitope, an ELISA analysis on native and denatured recombinant human wild-type EGFR and EGFRvIII proteins were performed. […] Antigens at 1-2 mg/ml were denatured by incubation at 95° C. for 5 min in PBS containing DTT at 40 mM final concentration. They were then incubated on ice for 5 min and diluted at their final coating concentration for ELISA purpose.
# (§3) mAbs were purified using HiTrap ProteinG HP 1 mL columns GE Healthcare cat no. 17-0404-01 and desalted using Zeba-spin desalting columns 5 mL (Pierce) pre-equilibrated in PBS and filter sterilized through […] membrane (Millipore). The final concentration of the antibody solutions was determined using a Nano-drop 2000 (ThermoScientific), using IgG as sample type. ELISA was performed as described above (serum titer determination) using 25 μl of mAb supernatant (Exp 1) or purified mAb at 1 μg/ml (Exp 2).
# [2] = molecular target: T3, recombinant human wild-type EGFR protein, native (human, UniProt P00533 25-645); assay: as above
# T3 construct: Recombinant protein used as ELISA coat; also called EGFRwt; wt EGFR
# Method: as §1, §2, §3
# [3] = molecular target: T4, wild-type human EGFR expressed on cells (U87MG overexpressing wild-type human EGFR) (human, UniProt P00533 25-645); assay: flow cytometry, hybridoma supernatant on U87MG-EGFR WT cells
# T4 construct: Full length wt EGFR on cells; also called U87MG-EGFR WT; U87 WT
# Method: Prior to analysis, cells were plated such that they were not more than 80% confluent on the day of analysis. Unless otherwise stated, all media are kept are 4° C. and all incubations are performed on wet ice.
# [4] = molecular target: T1, human EGFRvIII amino acid residues 1 to …; assay: yeast display; smallest EGFRvIII fragment the antibody was able to bind
# Description: Assessment of the binding of anti-EGFRvIII monoclonal antibodies to the fusion proteins expressed on yeast cell surface was done by flow cytometry analysis. Yeast cells were labeled with both the anti-EGFRvIII monoclonal antibody and chicken anti-Myc antibody the latter being used to monitor the level of expression of the fusion protein. Following a wash step, binding of the primary antibodies is probed by a two-color indirect fluorescence labeling using a specific mouse and chicken secondary antibodies for each of the primary antibody respectively.
# [5] = molecular target: T5, recombinant human EGFRvIII protein, denatured (human, UniProt P00533 298-623); assay: ELISA on coated denatured recombinant antigen; Exp 1, mAb supernatant
# T5 construct: Same protein as m9 after denaturation (95 °C for 5 min in PBS with 40 mM DTT); also called EGFRvIII Denatured
# Method: as §1, §2, §3
# [6] = molecular target: T2, recombinant human EGFRvIII protein, …; assay: ELISA on coated native recombinant antigen; Exp 1, mAb supernatant
# Method: as §1, §2, §3
# [7] = molecular target: T3, recombinant human wild-type EGFR …; assay: as above
# Method: as §1, §2, §3
# [8] = molecular target: T6, recombinant human wild-type EGFR protein, denatured (human, UniProt P00533 25-645); assay: ELISA on coated denatured recombinant antigen; Exp 2, purified mAb 1 µg/ml
# T6 construct: Same protein as m11 after denaturation (95 °C for 5 min in PBS with 40 mM DTT); also called EGFRwt Denatured
# Method: as §1, §2, §3
# [9] = molecular target: T5, recombinant human EGFRvIII protein, …; assay: as above
# Method: as §1, §2, §3
binder,measurement,setting,value
B1,ELISA absorbance (405 nm),[1],0.935 A405
same,ELISA absorbance (405 nm),[2],0.004 A405
same,binding result,[3],no binding
same,binding result,[4],binds
same,ELISA absorbance (405 nm),[5],2.55 A405
same,ELISA absorbance (405 nm),[6],1.49 A405
same,ELISA absorbance (405 nm),[7],0.002 A405
same,ELISA absorbance (405 nm),[8],0 A405
same,ELISA absorbance (405 nm),[9],1.05 A405

# From patent US20220323495A1 (NATIONAL RESEARCH COUNCIL OF CANADA, published 2022)
